Numbering of substitutions follows the chain as printed.
B1: TR01H082-E22Hh/none-Hi-Kn010G3/TR01L020-k0 (antibody, human IgG1, kappa, L234A L235A, N297A)
heavy: QVQLVESGGGLVQPGRSLRLSCAASGFTFSNAWMHWVRQAPGKGLEWVAQIKDKSQNYATYYAESVKGRFTISRDDSKNSLYLQMNSLKTEDTAVYYCRYVHYAAGYGVDAWGQGTTVTVSSASTKGPSVFPLAPSSKSTSGGTAALGCLVKDYFPEPVTVSWNSGALTSGVHTFPAVLQSSGLYSLSSVVTVPSSSLGTQTYICNVNHKPSNTKVDKKVEPKSCDKTHTCPPCPAPEAAGGPSVFLFPPKPKDTLMISRTPEVTCVVVDVSHEDPEVKFNWYVDGVEVHNAKTKPREEQYASTYRVVSVLTVLHQDWLNGKEYKCKVSNKALPAPIEKTISKAKGQPREPQVYTLPPSRCELTKNQVSLSCAVKGFYPSDIAVEWESNGQPENNYKTTPPVLDSDGSFFLVSKLTVDKSRWQQGNVFSCSVMHEALHNHYTQKSLSLSPDYKDDDDK
chain: EPKSSDKTHTCPPCPAPELLGGPSVFLFPPKPKDTLMISRTPEVTCVVVDVSHEDPEVKFNWYVDGVEVHNAKTKPREEQYNSTYRVVSVLTVLHQDWLNGKEYKCKVSNKALPAPIEKTISKAKGQPREPQVCTLPPSRDELTKNQVSLWCLVKGFYPSDIAVEWESNGQPENNYKTTPPVLDSDGSFFLYSKLTVDKSRWQQGNVFSCSVMHEALHNRYTQKSLSLSP
light: DIVMTQSPLSLPVTPGEPASISCQASESPVHSNRNTYIQWYLQKPGQSPQLLIYKVSNRFSGVPDRFSGSGSGTDFTLKISRVEAEDVGVYYCYQGTQVPYTFGQGTKLEIKRTVAAPSVFIFPPSDEQLKSGTASVVCLLNNFYPREAKVQWKVDNALQSGNSQESVTEQDSKDSTYSLSSTLTLSKADYEKHKVYACEVTHQGLSSPVTKSFNRGEC
notes: one-arm antibody (single Fab) with Fab-less hinge-Fc chain Hi-Kn010G3
B2: rCE115H-E22Hh/none-Hi-Kn010G3/L0000vk1-k0 (antibody, human IgG1, kappa, L234A L235A, N297A)
heavy: EVQLVETGGSLVQPGKSLKLTCATSGFTFSNAWMHWVRQSPEKQLEWVAQIKAKSNNYATYYAESVKGRFTISRDDSKSNIYLQMNSLKEEDTAVYYCRYVHYGAYYGVDAWGQGTSVTVSSASTKGPSVFPLAPSSKSTSGGTAALGCLVKDYFPEPVTVSWNSGALTSGVHTFPAVLQSSGLYSLSSVVTVPSSSLGTQTYICNVNHKPSNTKVDKKVEPKSCDKTHTCPPCPAPEAAGGPSVFLFPPKPKDTLMISRTPEVTCVVVDVSHEDPEVKFNWYVDGVEVHNAKTKPREEQYASTYRVVSVLTVLHQDWLNGKEYKCKVSNKALPAPIEKTISKAKGQPREPQVYTLPPSRCELTKNQVSLSCAVKGFYPSDIAVEWESNGQPENNYKTTPPVLDSDGSFFLVSKLTVDKSRWQQGNVFSCSVMHEALHNHYTQKSLSLSPDYKDDDDK
chain: B1 chain
light: DIQMTQSPSSLSASVGDRVTITCRSSQSLVHSNRNTYLHWYQQKPGKAPKLLIYKVSNRFSGVPSRFSGSGSGTDFTFTISSLQPEDIATYYCGQGTQVPYTFGQGTKVEIKRTVAAPSVFIFPPSDEQLKSGTASVVCLLNNFYPREAKVQWKVDNALQSGNSQESVTEQDSKDSTYSLSSTLTLSKADYEKHKVYACEVTHQGLSSPVTKSFNRGEC
notes: as for B1
B3: rCE115H-E22Hh/none-Hi-Kn010G3/L0000-k0 (antibody, human IgG1, kappa, L234A L235A, N297A)
heavy: B2 heavy
chain: B1 chain
light: B1 light with Q24R, A25S, E27Q, P29L, I38L, Q39H, L42Q, S48A, Q50R, Y94G
notes: as for B1
B4: TR01H015-E22Hh/none-Hi-Kn010G3/TR01L006-k0 (antibody, human IgG1, kappa, L234A L235A, N297A)
heavy: B1 heavy with D53G, Q56N, D75A, L81I, A104S, G106S, A111I
chain: B1 chain
light: B1 light with P29L, I38L, Q39H, Y94G, L109V, K112E
notes: as for B1
B5: TR01H102-E22Hh/none-Hi-Kn010G3/L0011-k0 (antibody, human IgG1, kappa, L234A L235A, N297A)
heavy: B1 heavy with Y62F
chain: B1 chain
light: DIVMTQSPLSLPVTPGEPASISCRSSQPLVHSNRNTYLHWYQQKPGQAPRLLIYKVSNRFSGVPDRFSGSGSGTDFTLKISRVEAEDVGVYYCGQGTQVPYTFGQGTKLEIKRTVAAPSVFIFPPSDEQLKSGTASVVCLLNNFYPREAKVQWKVDNALQSGNSQESVTEQDSKDSTYSLSSTLTLSKADYEKHKVYACEVTHQGLSSPVTKSFNRGEC
notes: as for B1
B6: hCE115HA-E22Hh/none-Hi-Kn010G3/L0000-k0 (antibody, human IgG1, kappa, L234A L235A, N297A)
heavy: B1 heavy with L11V, D53A, Q56N, A104G, G106Y
chain: B1 chain
light: B5 light with P28S
notes: as for B1
B7: TR01H097-E22Hh/none-Hi-Kn010G3/L0011-k0 (antibody, human IgG1, kappa, L234A L235A, N297A)
heavy: B1 heavy with T60L
chain: B1 chain
light: B5 light
notes: as for B1
B8: TR01H109-E22Hh/none-Hi-Kn010G3/L0011-k0 (antibody, human IgG1, kappa, L234A L235A, N297A)
heavy: B1 heavy with Y62V
chain: B1 chain
light: B5 light
notes: as for B1
B9: TR01H098-E22Hh/none-Hi-Kn010G3/L0011-k0 (antibody, human IgG1, kappa, L234A L235A, N297A)
heavy: B1 heavy with T60P
chain: B1 chain
light: B5 light
notes: as for B1
B10: TR01H106-E22Hh/none-Hi-Kn010G3/L0011-k0 (antibody, human IgG1, kappa, L234A L235A, N297A)
heavy: B1 heavy with Y62P
chain: B1 chain
light: B5 light
notes: as for B1
B11: hCE115HAa-E22Hh/none-Hi-Kn010G3/L0000-k0 (antibody, human IgG1, kappa, L234A L235A, N297A)
heavy: B1 heavy with L11V, R16G, D53A, Q56N, A104G, G106Y
chain: B1 chain
light: B5 light with P28S
notes: as for B1
B12: TR01H096-E22Hh/none-Hi-Kn010G3/L0011-k0 (antibody, human IgG1, kappa, L234A L235A, N297A)
heavy: B1 heavy with T60G
chain: B1 chain
light: B5 light
notes: as for B1
B13: TR01H095-E22Hh/none-Hi-Kn010G3/L0011-k0 (antibody, human IgG1, kappa, L234A L235A, N297A)
heavy: B1 heavy with T60F
chain: B1 chain
light: B5 light
notes: as for B1
B14: TR01H101-E22Hh/none-Hi-Kn010G3/L0011-k0 (antibody, human IgG1, kappa, L234A L235A, N297A)
heavy: B1 heavy with T60V
chain: B1 chain
light: B5 light
notes: as for B1
B15: TR01H103-E22Hh/none-Hi-Kn010G3/L0011-k0 (antibody, human IgG1, kappa, L234A L235A, N297A)
heavy: B1 heavy with Y62G
chain: B1 chain
light: B5 light
notes: as for B1
B16: TR01H099-E22Hh/none-Hi-Kn010G3/L0011-k0 (antibody, human IgG1, kappa, L234A L235A, N297A)
heavy: B1 heavy with T60Q
chain: B1 chain
light: B5 light
notes: as for B1
B17: TR01H104-E22Hh/none-Hi-Kn010G3/L0011-k0 (antibody, human IgG1, kappa, L234A L235A, N297A)
heavy: B1 heavy with Y62I
chain: B1 chain
light: B5 light
notes: as for B1
B18: TR01H094-E22Hh/none-Hi-Kn010G3/L0011-k0 (antibody, human IgG1, kappa, L234A L235A, N297A)
heavy: B1 heavy with K67S
chain: B1 chain
light: B5 light
notes: as for B1
B19: TR01H107-E22Hh/none-Hi-Kn010G3/L0011-k0 (antibody, human IgG1, kappa, L234A L235A, N297A)
heavy: B1 heavy with Y62Q
chain: B1 chain
light: B5 light
notes: as for B1
B20: TR01H091-E22Hh/none-Hi-Kn010G3/L0011-k0 (antibody, human IgG1, kappa, L234A L235A, N297A)
heavy: B1 heavy with R19K
chain: B1 chain
light: B5 light
notes: as for B1
B21: TR01H105-E22Hh/none-Hi-Kn010G3/L0011-k0 (antibody, human IgG1, kappa, L234A L235A, N297A)
heavy: B1 heavy with Y62L
chain: B1 chain
light: B5 light
notes: as for B1
B22: TR01H093-E22Hh/none-Hi-Kn010G3/L0011-k0 (antibody, human IgG1, kappa, L234A L235A, N297A)
heavy: B1 heavy with K67Q
chain: B1 chain
light: B5 light
notes: as for B1
B23: TR01H108-E22Hh/none-Hi-Kn010G3/L0011-k0 (antibody, human IgG1, kappa, L234A L235A, N297A)
heavy: B1 heavy with Y62T
chain: B1 chain
light: B5 light
notes: as for B1
B24: TR01H092-E22Hh/none-Hi-Kn010G3/L0011-k0 (antibody, human IgG1, kappa, L234A L235A, N297A)
heavy: B1 heavy with K67A
chain: B1 chain
light: B5 light
notes: as for B1
B25: TR01H090-E22Hh/none-Hi-Kn010G3/L0011-k0 (antibody, human IgG1, kappa, L234A L235A, N297A)
heavy: B1 heavy with R16G
chain: B1 chain
light: B5 light
notes: as for B1

Target: T1, soluble human CD3ε chain (human, UniProt P07766 23-126, limits assumed)
T1 construct: also called human CD3 epsilon chain
T1 sequence (P07766 23-126 limits assumed): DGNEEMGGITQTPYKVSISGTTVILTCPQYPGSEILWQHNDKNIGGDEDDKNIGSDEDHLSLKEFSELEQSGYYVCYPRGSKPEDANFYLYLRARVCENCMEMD
Assay: SPR (Biacore), soluble human CD3ε chain

Row | Binder | Kd [nM]
1 | B1 | 106
2 | B2 | 85.2
3 | B3 | 80
4 | B4 | 93
5 | B5 | 85.4
6 | B6 | 124
7 | B7 | 87.6
8 | B8 | 70.6
9 | B9 | 91.4
10 | B10 | 100
11 | B11 | 108
12 | B12 | 74.7
13 | B13 | 90.9
14 | B14 | 78.7
15 | B15 | 77.2
16 | B16 | 77.4
17 | B17 | 82.6
18 | B18 | 70
19 | B19 | 69.1
20 | B20 | 66.7
21 | B21 | 69.5
22 | B22 | 68
23 | B23 | 69.8
24 | B24 | 72.1
25 | B25 | 69.5

— patent US20210388110A1 (published 2021)
